Our source for the protein production values is a protein production outcome set (Wang et al. 2014).

The nature of the data set: label from the status in PepcDB records.

As to “MNINEKAIEMFEQNKYEEAMELFQQAVHKSRDVQSLNNLAWMYFYEEENDEKALELIREVVKLNPSSYFPYNILGEIYIKQKKWEEAKEVLQKSISIQPSDEAYHNVAVAHYNLGELEKASDFFLRVAGDSDYIMYSYVKCLIDLERTTEAKEKLDTFNRESDNFLGEINVADLYVELNCYKEAIEWFEKGYKECWKSPNWIGRFVYALYKTNNFSRINEVIRECIEAKTAEIEDVQNEEVEENWTENDKKELIEEYTEENNCYKTMVERIKSGYVPGLEFETDYIGACYLFGCKRHNHLEYEK”, the protein production entry is recorded as “failed”.
“MNINLSVPYAAEGPGPTINTLGQVDGEDVVSISSADLDETEGNLNMTTVSVRSGMTLSQVISRWLFTDDTIVPIEQVFPPGQSTEEVEESNRTAFISSESSATIAAMNYLNIPVEVEVAEVLTDSAATGIFEPGDKLLSIDGTAISTPGDAQTIVRSKAPGDEITISYERNDAESQATITLREHPDDSSVALLGISMLSVPSSAIEVDYNLEDIGGPSAGMMFSLAVVDKLSPGALNGGKFVAGTGTIAEDGSVGPIGGIAHKVRAAEDAGAEVFLSPADNCAEAMSAKPQDMTILKVDSLSQAIDQMAAYNEGLEHHHHHH”: the protein production entry is on record as “not failed”.
In the case of “MNISEMDSFDVTGFVIRTTNADEVSPSTAKIGELWARFYANAAPKLNEKSKVFGLYTNYGSDFTGAFDVIACSDTLSPEILPDSVKVTVAPGKYVTFSATGEMPQVVIELWGDVWRYFGSESCPYKRAYTTDFEYYKSASEVEISIAIK”, the protein production result was “failed”.
For the sequence “MNISIFKEKSLKWQLLRRMFLLLICFLIILEIFQYFFLRHYICKDKEMLLESRINNVAHLMTTIDSEASLKKNSGYLIKKSLYFDTTSSVIDKNGNVLLFHIKDKHPTSPPIISASEYKAIMKREGNLEGYTITKNKCGEPQITIWRKIGNLNSPLGLIQLTTPYHSAAQFLYKQIYIYIVACVLILILSILIGGTLIKHTLKPLYRIAHTLNNLTVGDLNKRLSENNNQVEIDHLATAFNNMFSRIEISFNREKELKKKMQQFISDASHELRTPLTSIRGFVEVLLIGSYKDEKKLKLALNTILIESERLTELVNNLLTLTRLDRSTHTEMTKQNMSDIIEEIYPQLKILAKNRQVNLNLYDNNAYFLGNKNQIKQVIFNIVQNSINYTDKETGIITLSLSIEDTLFILKISDNGIGIASKDLPHIFDRFFRSETHRSRESGGYGLGLSIAKSIIQSHGGEISTKSIINQGTSFYIKLKRI”, the protein production entry was “failed”.
For the sequence “MNISPKAIKVRNIWIGGTEPCICAPVVGEDDRKVLREAEEVCRKQPDLLEWRADFFRAIDDQERVLATANGLRNIAGEIPILFTIRSEREGGQPIPLNEAEVRRLIEAICRSGAIDLVDYELAYGERIADVRRMTEECSVWLVVSRHYFDGTPRKETLLADMRQAERYGADIAKVAVMPKSPEDVLVLLQATEEARRELAIPLITMAMGGLGAITRLAGWLFGSAVTFAVGNQSSAPGQIPIDDVRTVLSILQTYSR”, the protein production entry is recorded as “not failed”.
Take “MNITKAFCLSIALLGASNMQAITNSDFVIQQDNTKINNYQTNRPETSKRLFVSQAVEQQIAHIKQLLTNARLAWMFENCFPNTLDTTVHFDGKDDTFVYTGDIHAMWLRDSGAQVWPYVQLANKDAELKKMLAGVIKRQFKCINIDPYANAFNMNSEGGEWMSDLTDMKPELHERKWEIDSLCYPIRLAYHYWKTTGDASIFSDEWLTAIAKVLKTFKEQQRKEDPKGPYRFQRKTERALDTMTNDGWGNPVKPVGLIASAFRPSDDATTFQFLVPSNFFAVTSLRKAAEILNTVNKKPDLAKECTTLSNEVETALKKYAVYNHPKYGKIYAFEVDGFGNQLLMDDANVPSLIALPYLGDVKVNDPIYQNTRKFVWSEDNPYFFKGTAGEGIGGPHIGYDMIWPMSIMMKAFTSQNDAEIKTCIKMLMDTDAGTGFMHESFHKNDPKNFTRSWFAWQNTLFGELILKLVNEGKVDLLNSIQLEHHHHHH”: the protein production result is given as “failed”.
As for “MNITLAVLQLEDIPQAKQFAIRTRQLLFPDVYQLALPYDLTHFQDVYLHDQKGACFVVKDQQHNIIGMIAYRAYNHRFALDIPKDSVEVVKLFIQPEYRRQGLASRLCEALFGYAAQQKIKYFYLHTHPFLPAAEYFWTKQGFDVIHREEIQNYDTIHMFKSA”, the entry is “failed”; as for “MNIVKLMVIIIYLIIGSALGIIIIPEIANDLGLQNSSFLKNHYVDGIIGSIFMFLIFGVFIRRVTNAIKGLEHFIMRRSAVEILFATIGLIIGLLISVMVSFILESIGNSIFNHFIPVIITILLCYFGFQFGLKKRDEMLMFLPENIARSMSQHTKSATPKIIDTSAIIDGRILEVIRCGFIDGNILIPQGVINELQIVADSNDSVKREKGKRGLDILNELYDLDYPTKVIHPTKTHSDIDTMLLKLAKQYHASIITTDFNLNKVCHVHGIKALNVNDLSEAIKPNVHQGDQLHILLTKMGKEPGQAVGYLDDGTMVVVDNAKNLIGSHVNLEVVSLLQTSSGRIVFAKKIEDTVSLLEHHHHHH”, “failed”; as for “MNKDLKAIKWFITTQILKDPFNPAYATFKVTSRCNLRCTFCSPSYYSGELGEGSTERVKKIIDNLRDSSIVVLSFEGGEPTYRPDILDLLEYAHDGSFYIMLTTNGYRLKDEDFLTKLADKIDFLHYSIDEYHWNVKELENLCRFRKYGLKVNVQTVVTRYNLYKLEEKVRKVAECGYKILAMPAVDYPNSKVKLAPDPYEFYKVLYDLKRKYGSTLNNSWGFINAIIGKVPKRVVSYAITIYPNGDLPYPDDINGEIVGNVAEEPLNKILQSSKVKELQQKMLENQAKFEYLHLQTASFNNIRDLASYVSEMLRWRFTGRA”, “failed”.
As to “MNKEMTLLPPPELVQYVGGDFKKVGKEFLKHFIQIGALKSNEKVLDVGCGVGRMAVPLMNYLNDDGAYYGFDLFKDGITWCQNNISTMRNNFHFEHVDIYNQFYNPEGKEDASQYRFPYEDGTFDFIFLTSVFTHLLPKELEHYVSEIVRVLKKDGRCFITFFLINPESSYYLNAGQSTLGFYHRIENCYVVNKDIPNFAVAYPETDICNLLNKYGLEIINKPHYGLWCGRHEYTSYQDIVLTKKSLEHHHHHH”, the protein production result was “failed”.
As for “MNKERGMKGTCLCGAIEVIAEPKNEVSLCHCSMCRKWSSGALHAVHCGPEVTFKGAEPKRYQSSDWAVRGFCGECGTNLFYHLLPTNEYILSAGLFDNPDFKLTLEIFTDEKPGYYELNPHSKKMTAQEVYDQFVPKE”, the entry is “failed”; as for “MNKFELYHPILTEHFALDWLTHSKVRDIFELRHDPEIAKASDRDIDATIEDTTTYVNQMMRLVMNNEALIWGITDQNTHEFLGTFCIWDFDQAQKSASVRFEILRNQQHKGIMSEVLRRMSIFSFEELGLEKLFATALKNNTIARTLLEQVGFSAVASQTDNQNITLELNRH”, “failed”; as for “MNKFGAEKIFIEKQSGATITHRPIFQEALDFVRAQDIFIVEAIDRLGRNYDEIIDSVNYLKKKNVRLIITSLPIMAEAIGNPLLDKFIKDLIIQILAMIAEQERTESKRRQAQGIKIAKANGVYKGRPKLYSADTKDPQRRLVYKSIVQDLKNGVAISKIAKDYNITRQTIYRIKKEIHELEIN”, “failed”.
With “MNKFLTTIIIKSKCSLLFISSINDSFIYIIRRMINANWSNFTLSWSIARNYWYYFRKCLDGRPFTVFLTSYQIFSTSFCKGNMFYVISSLIIFIQIMNCFLEHHHHHH”, the protein production result is reported as “failed”.
For the sequence “MNKHASQPRAIYYVVALQIWEYFSFYGMRALLILYLTNQLKYNDTHAYELFSAYCSLVYVTPILGGFLADKVLGNRMAVMLGALLMAIGHVVLGASEIHPSFLYLSLAIIVCGYGLFKSNVSCLLGELYEPTDPRRDGGFSLMYAAGNVGSIIAPIACGYAQEEYSWAMGFGLAAVGMIAGLVIFLCGNRHFTHTRGVNKKVLRATNFLLPNWGWLLVLLVATPALITILFWKEWSVYALIVATIIGLGVLAKIYRKAENQKQRKELGLIVTLTFFSMLFWAFAQQGGSSISLYIDRFVNRDMFGYTVPTAMFQSINAFAVMLCGVFLAWVVKESVAGNRTVRIWGKFALGLGLMSAGFCILTLSARWSAMYGHSSLPLMVLGLAVMGFAELFIDPVAMSQITRIEIPGVTGVLTGIYMLLSGAIANYLAGVIADQTSQASFDASGAINYSINAYIEVFDQITWGALACVGLVLMIWLYQALKFRNRALALES”, the protein production result is recorded as “failed”.
In the case of “MNKKKIKKLIKSALATTCAVSVITTTSVTAFASNSGENSKEEESNKRVEAEVYPVPQSLEHSSIEGMTLEGEVNIVYHGEQEAATSKRLERTLNENNIAFKVSENVEEGKANIIVSSEGDHCDVCSEGKEENSDVLTHKEGYVLKTSNDINEKGNISIIGSDKDGAYYGVLTLSQILEQSNEENKFAEVVVTDYPEIEFRGFIEGFYGVPWSHEDRMNLMKDTSEYKMNTYIYAPKDDPYHRLSWKELYPEQEAKQIAELAKAGAENNFNFCWTIHPGATLQFTDEDFDALINKFEQLYSLGVRQFGVLFDDTDDWRNGQKQAEWINKIDTEFVKAKGDVAPMIVISARYNSAWGPNMDRYFKPFMQTLHDDIQVMWTGHATMSNVSKEVFEWPKVQTGVDKDVAVWWNYPVNDYCDSRILMAPLHNLNQDLDNVSGFFSNPMNQAEASKVALYSIADYTWNTDAFDYMKSWETSIEKFVPEVKEEFMRFASNTCYLKDDGGASGPFEYDESWYLSEKIDALKEAMKNGQSAVKPAKDLLEEFKLIVSDYESITSKVTNKNLLGEIEQHLNAYKALGEAGIAAMEAIIASEEGNLELWMNSNSLAQEKLDLMETFKIESLESDGPKEYVVSVGTKLLKPLVKESMDYAKEKMGEVVLPKYDPEINTSLTNLKDVEVNFEDGIYSLRDLGEVTLNNGDYVGISLPKATKLRGINLLANNYDNIEIQYSINGLDWVTAKASTNENVLETLDVVDATFIRIINIGENSKNINLEKLEVLPVYKAEPTITENIGTHENYTIDKALDGNMDTKYWSNKPSDSGHNIQIDLGNVMPLYDINTYFGANDFMRNSEYMISEDGVNWTSLGALAYNSQDGKMVASANAEGKMARYIKIQSNGHNYGCWVEIYEIEFNKTAPEFDESAVNLASGTLEGNFNAFYDEDLSTAYEAKSVKDGDSLIYKMSRVTNISELEILQDKNRISEAKVSVKDLGGNWTEIGHLNAQINKLKVDNNITEVKFEFEGSKPAPKIYEIIAREREEQEEIVVSPVKEFKATTINKKNVTVSWEEPENTFGLESYILYKDGKKVSEISSDETSYTFKGLNRHTIYNFKIAAKYSNGEISKKESLTIRTAR”, the protein production entry is given as “failed”.
With “MNKKRTVDLIHGPILPSLLSFTFPILLSNIFQQLYNTADVLIVGRFLGQESLAAVGATTAIFDLIVGFTLGVGNGMGIVIARYYGARNFTKIKEAVAATWILGALLSILVMLLGFLGLYPLLQYLDTPAEILPQSYQYISMIVTCVGVSFAYNLFAGLLRSIGDSLAALGFLIFSALVNVVLDLYFITQLHLGVQSAGLATIISQGLSAVLCFYYIRKSVPELLPQFKHFKWDKSLYADLLEQGLAMGLMSSIVSIGSVILQFSVNTFGAVIISAQTAARRIMTFALLPMTAISASMTTFASQNLGAKRPDRIVQGLRIGSRLSISWAVFVCIFLFFASPALVSFLASSTDGYLIENGSLYLQISSTFYPILSLLLIYRNCLQGLGQKILPLVSSFIELIGKIVFVVLIIPWAGYKGVILCEPLIWVAMTVQLYFSLFRHPLIKEGKAILATKVQS”, the protein production entry is “failed”.
The result for “MNKKTIGFFSGIAVFAIIYFLPIAGLSAKGQMDLALSLMTVVWWATQIAQPAFVGGIYLMLLIIMNVATPSQVFSSAWTGSIMWLVIGAYLIAGAVNESGLGQRIAYAFIIKFVRSWKGIVISIFALTFILALLIPHPWPRAFMIMSVITVVAETAKMPKRDLAKLGLAVFAASCPLSGVFYTGDTSLNPLAVQASGQSVNFVSYFIYMGVPMIIAAILTMFLFLFLFKPSQEVHIDVEALKQQQAQLGGMTGKEVRTIIWLIIAIALWLTSGITGLDVGWLTLIVALMMSLPVVGGILTAKSWEGVPVNVLVFLTSAIAIGNVGGVTGMNNWIAKTLIPSNLPTNIYLLAIVITVFAMIIHMFMGSVIAVMGITIPAFVAATAHMGISPLAVSLLVFSVTNLHYILPFHNLAVLVGSDPDTGGGYTQKDVMRLGIPLTAVVFVVALVEMFWFHLVGLA” reads “failed”.
